Data from doi:10.1101/2020.06.30.176701 (bioRxiv, 2020).
Where two headings read alike, the source gives them in different places.

T1: archaeal ribosomal P-stalk complex aP0•(aP1•aP1)3 (Pyrococcus horikoshii, UniProt O74109 1-342; O57705 1-108)
T1 sequence (looked up) 1: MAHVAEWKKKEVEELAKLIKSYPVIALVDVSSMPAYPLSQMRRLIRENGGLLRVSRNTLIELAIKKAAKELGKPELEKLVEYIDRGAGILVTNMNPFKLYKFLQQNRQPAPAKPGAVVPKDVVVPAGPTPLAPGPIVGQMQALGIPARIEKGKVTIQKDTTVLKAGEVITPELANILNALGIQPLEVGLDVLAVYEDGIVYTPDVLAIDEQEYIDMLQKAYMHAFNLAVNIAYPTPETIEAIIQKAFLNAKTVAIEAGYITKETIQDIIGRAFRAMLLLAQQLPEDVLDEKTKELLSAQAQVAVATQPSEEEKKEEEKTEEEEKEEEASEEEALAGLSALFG
T1 sequence (looked up) 2: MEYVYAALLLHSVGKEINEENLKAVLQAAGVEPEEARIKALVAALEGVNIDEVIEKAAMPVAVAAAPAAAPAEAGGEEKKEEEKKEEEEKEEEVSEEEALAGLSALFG


Columns and labels:
Test in all cases: high-speed atomic force microscopy
[1] = molecular target: T1, archaeal ribosomal P-stalk complex …
[2] = molecular target: T1, archaeal ribosomal P-stalk complex …; remark: listed apart in the source
[3] = molecular target: T1, archaeal ribosomal P-stalk complex …; remark: listed apart in the source
[4] = molecular target: T1, archaeal ribosomal P-stalk complex …; remark: listed apart in the source
[5] = molecular target: T1, archaeal ribosomal P-stalk complex …; remark: listed apart in the source

| Binder | fold distribution near the P-stalk relative to the opposite control area [1] [fold] | stoichiometry N [2] | fold distribution near the P-stalk relative to the opposite control area [3] [fold] | fold distribution near the P-stalk relative to the opposite control area [4] [fold] | fold distribution near the P-stalk relative to the opposite control area [5] [fold] |
| --- | --- | --- | --- | --- | --- |
| archaeal elongation factor 2 (aEF2) of Pyrococcus furiosus (natural protein, UniProt P61877 1-732, looked up) MGRREEMIAKIKELMLQPERIRNIGIAAHIDHGKTTLSDNLLAGAGMISEELAGKQLVLDFDEQEQARGITINAANVSMVHNYEGKDYLINLIDTPGHVDFGGDVTRAMRAIDGVIIVVDAVEGVMPQTETVVRQALREYVKPVLFINKVDRLIRELKLTPQQMMERFSKIIMDVNRLIQRYAPEEYKKKWMVRVEDGSVAFGSAYYNWALSVPFMQRTGVKFNEIIDLTLKGDNKTLRQRAPLHVVVLDMVVRHLPSPIEAQKYRIPHLWQGDINSKIGQAMLNCDPKGKMVMVITKIIIDKHAGEVATGRVWSGTVRSGQEVYLINSKRKGRIQQVGIYMGPERINMEAVPAGNIVAVTGLRDAMAGETVAEEQIEPFEALHYVSEPVVTVAIEAKNVKDLPRLIEALRQLAKEDPTLHVKIDEETGQHLLSGMGELHLEVKLYKLQKDWGIEVDVSEPIVVYRESITKPSPIVEGKSPNKHNRFYVVVEPMPDEIYQAIKEGIIPEGRVKDPKAVAKKLAELGMDYDIARGVVDIYNGNMFLDNTKGIQYLNEVMDLLIDGFHQAMDEGPLAKEPVMKVIVRLVDAQVHEDNVHRGPAQIYPAIRTAIHCAMMKAGPVLYEPYQKVIINIPYEYMGAVSREISQRRGQLIDMRQEGEVMTIIAEAPVAEMFGFAGAIRSATSGRALWSTEHAGFKRVPNELAQQIIRQIRQRKGLDPNPPTEKDVCPLF | ~4.3 | ≤ 7 aEF2 molecules per P-stalk | 6.6 |  |  |
| archaeal elongation factor 1A (aEF1A) of Pyrococcus furiosus (natural protein, UniProt Q8U152 1-428, looked up) MPKDKPHVNIVFIGHVDHGKSTTIGRLLYDTGNIPEQIIKKFEEMGEKGKSFKFAWVMDRLKEERERGITIDVAHTKFETPHRYITIIDAPGHRDFVKNMITGASQADAAVLVVAATDGVMPQTKEHAFLARTLGIKHIIVAINKMDMVNYNQKRFEEVKAQVEKLLKMLGYKDFPVIPISAWEGENVVKKSDKMPWYNGPTLIEALDQIPEPEKPVDKPLRIPIQDVYSIKGVGTVPVGRVETGKLRVGEVVIFEPASTIFHKPIQGEVKSIEMHHEPLEEALPGDNIGFNVRGVSKNDIKRGDVAGHTTNPPTVVRTKDTFKAQIIVLNHPTAITVGYSPVLHAHTAQVPVRFEQLLAKLDPKTGNIVEENPQFIKTGDAAIVILRPMKPVVLEPVKEIPQLGRFAIRDMGMTIAAGMVISIQRGE |  |  |  | 2.6 | 4.2 |
